According to patent US20240115527A1, “CXCR1/CXCR2 INHIBITORS FOR USE IN TREATING MYELOFIBROSIS” (Icahn School of Medicine at Mount Sinai, priority 2020, published 2024):

B1: LCN2: Lipocalin2 (LCN2) is a cytokine produced by MF marrow myeloid cells (protein, UniProt P80188 21-198, looked up)
Neutrophil …: QDSTSDLIPAPPLSKVPLQQNFQDNQFQGKWYVVGLAGNAILREDKDPQKMYATIYELKEDKSYNVTSVLFRKKKCDYWIRTFVPGCQPGEFTLGNIKSYPGLTSYLVRVVSTNYNQHAMVFFKKVSQNREYFKITLYGRTKELTSELKENFIRFSKSLGLPENHIVFPVPIDQCIDG

Legend:
Type in all cases: cell-based, human
[1] = system: MF CD34+ cells; experiment: Colony forming assay (CFU-GM) of cultured MF CD34+ cells with IL-8; conditions: co-treatment with reparixin, FIG. 5A
Text: FIGS. 5A, 5B. 5C, 5D, and 5E illustrate that a CXCR1/CXCR2 inhibitor reverses effects of IL-8 on MF CD34^+ cell colony formation. […] CFU-GM=colony-forming unit-granulocyte-macrophage. FIGS. 5B and 5C illustrate that IL-8 increased CFU-GM colony formation by MF CD34^+ cells in a dose dependent fashion and that the effects of IL-8 were inhibited by treatment with Ladx. FIG. 5B. Normal cells. FIG. 5C. MF cells. […] Con=control. IL-8 concentrations increase from left to right. […] P values were as follows: w/o Ladx: Con vs IL-8—10 ng: 0.159332; Con vs IL-8—20 ng: 0.011976; Con vs IL-8—50 ng: 0.00262; Con vs IL-8—100 ng: 0.00042; w/ 10 μM Ladx: Con vs Ladx: 0.315782; IL-8—10 ng vs plus Ladx: 0.295851; IL-8—20 ng vs plus Ladx: 0.077726; IL-8—50 ng vs plus Ladx: 0.031355; IL-8—100 ng vs plus Ladx: 0.081595.

[2] = system: MF CD34+ cells co-cultured with splenic EC; experiment: Proliferation of MF CD34+ cells co-cultured with LCN2 treated splenic endothelial cells; conditions: FIG. 4B
Text: FIGS. 4A and 4B illustrate that addition of a CXCR1/CXCR2 inhibitor reverses effects of IL-8 on MF CD34^+ cells proliferation and lineage differentiation. FIG. 4A illustrates that IL-8 decreased the fraction of normal CD34^+, CD41^+, and CD33^+ cells, but increased the fraction of MF CD34^+, CD41^+, and CD33^+ cells. The effects of IL-8 were eliminated by the addition of the CXCR1/CXCR2 inhibitor ladarixin (Ladx). Normal CD34/CD41/CD33: left bars. MF CD34/CD41/CD33: Right bars. FIG. 4B illustrates that splenic endothelial cells (ECs) promote the proliferation of hematopoietic CD34^+ cells. Shown is fold change in CD34^+ cells cultured alone in the absence of cytokines and that the numbers are increased when the CD34^+ cells were co-cultured with LCN2 treated endothelial cells. The effects of co-cultivation with ECs were eliminated by addition of the CXCR1/CXCR2 antagonist reparixin (RPX).
Similarly, while treatment with LCN2 enhances endothelial cell (EC)-mediated proliferation of MF cells, treatment with the CXCR1/CXCR2 inhibitor reparixin decreased MF CD34^+ proliferation when co-cultured with splenic EC (FIG. 4B).

[3] = system: normal splenic stromal cells; experiment: IL-8 and CXCL1 mRNA and protein levels in normal splenic stromal cells treated with LCN2; conditions: treatment with LCN2, FIGS. 3A and 3B
Text: FIGS. 3A, 3B, and 3C illustrate that reduction of IL-8 blocks VEGF, which is involved in the development of splenic endothelial cells (EC)/MF HSC niches. FIGS. 3A and 3B illustrate that LCN2 increases IL-8 and CXCL1 protein and mRNA levels in spleen stromal cells. Con: left bars. LCN2: right bars. FIG. 3C illustrates that IL-8 regulates VEGF expression. si=silencing. Ab=antibody. Con=control.
Lipocalin2 (LCN2) is a cytokine produced by MF marrow myeloid cells. Levels of LCN2 are 2-3 fold greater in the circulation of MF patients as compared to PV and ET patients and even higher as compared to healthy controls. […] IL-8 and the related chemokine CXCL1 are pro-angiogenic creating a cascade of cytokines (VEGF) contributing to the development of splenic EC/MF HSC niches. […] The positive impact of IL-8 on VEGF expression was blocked by an IL-8 neutralizing antibody.

Molecule	effect on IL-8 enhanced colony output of MF CD34+ cells [1]	MF CD34+ proliferation when co-cultured with splenic EC ([2]; reparixin added to co-culture)	CXCL1 mRNA and protein levels [3]	IL-8 mRNA and protein levels [3]	endothelial cell (EC)-mediated proliferation of MF cells ([2]; LCN2 treated endothelial cells)
CC(C)Cc1ccc([C@@H](C)C(=O)NS(C)(=O)=O)cc1 [reparixin, R-(-)-2-(4-isobutylphenyl)-N-methanesulfonyl propionamide]	ameliorated	decreased			
B1			significant increase	significant increase	enhances
